{
  "source": "patent US20220267464A1",
  "binders": {"B1": {"name": "P1AE3125 (antibody, IgG1, V domains shown)", "VH": "QVQLVQSGAEVKKPGASVKVSCKASGFNIKDSYMHWVRQAPGQGLEWMGWIDPENGDTEYAPKFQGRVTMTTDTSISTAYMELSRLRSDDTAVYYCNEGTPTGPYYFDYWGQGTLVTVSS", "VL": "DIQMTQSPSSLSASVGDRVTITCRASSSVSYMHWYQQKPGKAPKLLIYSTSNLASGVPSRFSGSGSGTDFTLTISSLQPEDFATYYCQQRSSYPLTFGGGTKLEIK"}},
  "target": "human CEACAM5 (carcinoembryonic antigen, CEA) on cells (human) (UniProt P06731)",
  "sequence (P06731 35-685 E398K limits assumed)": "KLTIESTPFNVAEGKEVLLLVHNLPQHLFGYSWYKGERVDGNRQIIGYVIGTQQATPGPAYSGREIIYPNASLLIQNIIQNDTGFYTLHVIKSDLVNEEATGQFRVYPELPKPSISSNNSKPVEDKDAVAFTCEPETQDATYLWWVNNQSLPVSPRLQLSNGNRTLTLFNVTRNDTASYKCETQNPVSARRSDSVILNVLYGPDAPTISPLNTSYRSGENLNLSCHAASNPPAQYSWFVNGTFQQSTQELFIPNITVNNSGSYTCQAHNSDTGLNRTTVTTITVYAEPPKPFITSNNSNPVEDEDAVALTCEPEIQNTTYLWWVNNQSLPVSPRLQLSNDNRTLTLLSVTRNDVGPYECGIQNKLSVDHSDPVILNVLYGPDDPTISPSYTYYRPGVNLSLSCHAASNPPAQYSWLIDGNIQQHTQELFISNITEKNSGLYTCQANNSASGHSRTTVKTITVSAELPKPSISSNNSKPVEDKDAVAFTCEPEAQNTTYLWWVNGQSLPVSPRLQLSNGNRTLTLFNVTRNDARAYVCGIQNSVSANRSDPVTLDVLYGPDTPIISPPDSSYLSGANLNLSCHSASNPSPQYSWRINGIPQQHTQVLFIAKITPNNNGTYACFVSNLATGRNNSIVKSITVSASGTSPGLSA",
  "test": "flow cytometry, MKN45 cells",
  "parameters": "unit not given beside the values",
  "data": [
    {"binder": "B1", "values": [
      {"measurement": "AUC", "value": 3140}
    ]}
  ]
}
